Measurements as given in US8450481B2, “Compounds for inhibiting protein aggregation, and methods for making and using them” (The Regents of the University of California, priority 2007, dated 2013).

Key:
[1] = tested on: neuronal cultures overexpressing α-syn; assay: neuronal viability by LDH assay in neuronal cultures overexpressing α-syn; format: cell-based
Text: FIG. 17 illustrates the effects of a peptide blocker of α-syn aggregation of this invention in neuronal viability.

[2] = biological target: T1, SYN (Homo sapiens, UniProt P37840); assay: α-syn aggregation/accumulation in neuronal cultures overexpressing α-syn (B103 neuronal cell line, lentivirus SYN); format: cell-based; design: expressed in transfected cells; host or cells: B103 neuronal cell line, lentiviral transduction; conditions: 24 hrs
Procedure: The B103 neuronal cell line was infected with a lentivirus expressing SYN (wildtype) or GFP (control) and cells expressing SYN were exposed to the peptides at 0, 1 and 10 uM for 24 hrs. Cells were assayed for SYN aggregation by immunoblot, neurite outgrowth and survival. […] The peptide KKDQLGK (SEQ ID NO:1) and control peptides can be injected into the brain of SYN transgenic (tg) mice to test for in vivo effects.

[3] = biological target: T1, SYN; assay: cell free SYN aggregation assay with immunoblot; format: biochemical; conditions: for blocking SYN aggregation in cell free system, compared with the other peptides and controls: immunoblot
Procedure: The peptides of the invention were tested in a cell free system with the appropriate controls (smaller and larger peptides, amino acid (aa) substitutions, scrambled sequence). For this purpose recombinant SYN (10 uM) was incubated at 37 and 65 degrees C. for 0, 4, 6, 12 and 24 with the peptides at 0, 1 and 10 uM. Control experiments where performed with beta and gamma-synuclein as well as with a mutant SYN molecule that cannot bind the peptide. The mixture was run in a gel, followed by immunoblot testing with SYN antibodies.

[4] = biological target: T2, α-syn (Homo sapiens, UniProt P37840); assay: intraventricular infusion in α-syn transgenic mice; format: in vivo
T2 construct: from tissue; host or cells: brain (hippocampus) of thy1-α-syn transgenic mice
Procedure: FIG. 19 illustrates the effects of peptide blocker of α-syn aggregation in vivo in α-syn (α-syn) transgenic mice. FIG. 19A illustrates the experimental design: for these studies the thy1-overexpressing α-syn received intraventricular infusions with osmotic minipumps of control scrambled peptide, or the exemplary peptide of this invention 96-102 KKDQLGK (SEQ ID NO:1) for 6 weeks, at 30 μM peptide, where 200 μl of solution is minipumped into the lateral ventricle of the animal.

[5] = tested on: neuronal cultures overexpressing α-syn; assay: intracellular calcium influx by Fluo-4 and FLIPR assay in neuronal cultures overexpressing α-syn; format: cell-based; conditions: after 24 hrs at 37° C., compared to vehicle and scrambled peptide controls
Text: FIG. 18 illustrates the effects of a peptide blocker of α-syn aggregation of this invention in neuronal calcium levels. FIG. 18A is a micrograph illustration showing that in neuronal cultures overexpressing α-syn there is a significant time dependent increase in intracellular calcium influx as determined by Fluo-4 and the FLIPR assay. […] (arrow) compared to vehicle and scrambled peptide controls. Data from these studies is graphically summarized on the right hand panels.

[6] = tested on: HEK293T cells expressing α-syn; assay: ion currents in HEK293T cells expressing α-syn; format: cell-based; conditions: extracellular application of 500 μM Zn^2+, +80 mv
Text: FIG. 3K, FIG. 3L and FIG. 3M graphically illustrate data showing representative currents elicited by depolarizing the cells from a holding potential of −50 mv to a series of test potentials ranging from −80 to +80 mv, and corresponding current-voltage relationship (E; means±SE) in transduced cells. Cells expressing α-syn display a significant increase in ion currents. FIG. 3N left panel graphically illustrates representative currents at +80 mv (left panel) before (Cont), during (Zn^2+) and after (Wash) application of 500 μM Zn^2+. FIG. 3N, right panel, graphically illustrates the time course of the change in current density before, during, and after extracellular application of Zn^2+. The arrows correspond to the currents shown in the left panel (Cont, a; Zn^2+, b; and Washout, c). The increased currents in cells expressing α-syn are attenuated by Zn^2+.

Compound | neuronal viability as assayed by the LDH assay [1] | blocking SYN aggregation in neuronal cell based system, compared with the other peptides and controls ([2]; immunoblot, B103 cells expressing SYN) | α-syn accumulation in neuronal cultures overexpressing α-syn ([2]; peptide at 1 uM, compared to vehicle) | α-syn aggregation, cell free immunoblot assays ([3]; at 37° C. and 65° C.) | blocking SYN aggregation in cell free system, compared with the other peptides and controls [3] | levels of monomeric and aggregated α-syn, immunoblot ([4]; infusion, compared to scrambled peptide controls) | neuronal α-syn accumulation in the hippocampus ([4]; intraventricular infusion 6 weeks, 30 μM peptide, compared to scrambled peptide) | neuronal calcium influx [5] | increased ion currents in cells expressing α-syn [6]
KKDQLGK [amino acids 96-102 of human SYN] | improved neuronal viability | most effective at blocking SYN aggregation | reduced accumulation of α-syn dimer | reduced aggregation | most effective at blocking SYN aggregation | significant reduction | significant reduction in neuronal α-syn accumulation | reduced neuronal calcium influx | 
EKTKEQVTN [amino acids 57-65 of SYN] |  |  |  |  | most effective at blocking SYN aggregation |  |  |  | 
[Zn+2] [Zn^2+] |  |  |  |  |  |  |  |  | attenuated
